# Results reported in patent US20230295310A1 (ABCELLERA BIOLOGICS, published 2023).
# B1: mAb 106 (antibody, V domains shown)
# VH: QVQLVESGGGVVQPGRSLRLSCAASGFTFRSYGMHWVRQAPGKGLEWVAIIWYNGNKKDYVDSVKGRFTISRDNSKNTLYLQMNSLRAEDTALYYCARGPGYNWFDPWGQGTLVTVSS
# VL: DIQMTQSPPSLSASVGDRVTITCRASQRISSYLNWYQQKPGKAPKLLIYAASSLQSGVPSRFSGSGSGTDFTLTISSLQPEDFATYYCQQSDSFPLTFGGGTKVEII
# B2: mAb 110 (antibody, V domains shown)
# VH: QVQLVESGGGVVQPGRSLRLSCAASGFTFRSYGMHWVRQAPGKGLEWVAIIWYNGNKKDYVDSVKGRFTISRDNSKNMLYLQMNSLRAEDTALYYCARGPGYNWFDPWGQGTLVTVSS
# VL: DIQMTQSPPSLSASVGDRVTITCRASQRISSYLNWYQQRPGKAPKLLIYAASSLQSGVPSRFSGSGSGTDFTLTISSLQPEDFATYYCQQTDSFPLTFGGGTKVEII
# B3: mAb 111 (antibody, V domains shown)
# VH: EVQLVESGGVLVKTGGSLRLSCVASGFSFKKAWMNWVRQAPGKGLEWVGRIKRNSDGGAADYAAPVKDRFTLSRDDSKNTLYLQMNSLKTEDTAVYYCTTLDSSSWYVGYYYMDVWGKGTTVTVSS
# VL: DIHMTQSPSSVSASLGDRVTFTCRASQNINNWLAWYQQKPGKAPKLLIYTASSLQSGVPSRFSGSGSGTDFTLTISSLQPDDFATYYCQQAHSLPITFGQGTRLGIK
# B4: mAb 112 (antibody, V domains shown)
# VH: EVQLVESGGGLVKTGGSHRLSCVASGFSFKKAWMNWVRQAPGKGLEWVGRIKRNSDGGTTDYAAPVKGRFILSRDDSKNTLYLQMNSLKTEDTAVYYCTTLDSSSWYVGYYYMDVWGKGTTVTVSS
# VL: DIQMTQSPSSVSASVGDRVTITCRASQDINNWLAWYQQKPGKAPKILIYTASNLQSGVPSRFSGSGSGTDFTLTISSLQPEDFATYFCQQAHSLPITFGQGTRLEIK
# B5: mAb 113 (antibody, V domains shown)
# VH: EVQLVESGGGLVKTGGSLRLSCVASGFSFKKAWMNWVRQAPGKGLEWVGRIKRNTDGGTTDYAAPVKGRFTLSRDDSKNTLYLQMNSLKTEDTAVYYCTTLDSSSWYVGYYYMDVWGKGTTVTVSS
# VL: DIQMTQSPSSVSASVGDRVTITCRASQDINNWLAWYQQKPGKAPKILIYTASSLQSGVPSRFSGSGSGTDFTLTISSLQPEDFATYYCQQAHSLPITFGQGTRLEIK
# B6: mAb 47 (antibody, V domains shown)
# V domain 1: QAQLVQSGSELKKPGASVKVSCKASGYTFTKHSMNWVRQAPGQGLEWMGWINTNTGNPTYAQGFTGRFVFSLDTSVTTAYLQISSLKAEDTAVYYCAREGDYDFWSGFFNFDYWGQGTLVTVSS
# V domain 2: QAQLVQSGSELKKPGASVKVSCKASGYTFTKHSMNWVRQAPGQGLEWMGWINTNTGNPTYAQGFTGRFVFSLDTSVTTAYLQISSLKAEDTAVYYCAREGDYDFWSGFFNFDYWGQGTLVTVSS
# B7: mAb 114 (antibody, V domains shown)
# VH: EVQLVESGGGLVKTGGSLRLSCVASGFSFKKAWMNWVRQAPGKGLEWVGRIKRNTDGGPADYAAPVKGRFTLSRDDSKKTLYLQMNSLKTEDTAVYYCTTLDSSSWYVGYYYMDVWGKGTTVTVSS
# VL: DIQMTQSPSSVSASVGDRVIITCRASQDINNWLAWYLQRPGKAPKLLIYAASSLQSGVPSRFSGSGSGTDFTLTIGSLQPEDFATYYCQQAHSLPITFGQGTRLEIQ
# B8: mAb 115 (antibody, V domains shown)
# VH: EVQLVESGGGLVKTGGSHRLSCVASGFSFKKAWMNWVRQAPGKGLEWVGRIKRNSDGGTTDYAAPVKGRFILSRDDSKNTLYLQMNSLKTEDTAVYYCTTLDSSSWYVGYYYMDVWGKGTTVTVSS
# VL: DIQMTQSPSSVSASVGDRVTITCRASQDINNWLAWYQQKPGKAPKILIYTASNLQSGVPSRFSGSGSGTDFTLTISSLQPEDFATYFCQQAHGLPITFGQGTRLEIK
# B9: mAb 116 (antibody, V domains shown)
# VH: EVQLVESGGGLVKTGGSLRLSCVASGFSFKKAWMNWVRQAPGKGLEWVGRIKRNSDGGTTDYAAPVKGRFTLSRDDSKNTLYLQMNSLKTEDTAVYYCTTLDSSSWYVGYYYMDVWGKGTTVTVSS
# VL: DIQMTQSPFSVSASVGDRVTITCRASQDINNWLAWYQQKPGKAPKILIYTASSLQSGVPSRFSGSGSGTDFTLTISSLQPEDFATYYCQQAHSLPITFGQGTRLEIK
# B10: mAb 117 (antibody, V domains shown)
# VH: EVQLVESGGGLVKTGGSLRLSCVASGFSFKKAWMNWVRQAPGKGLEWVGRIKRNTDGGTTDYAAPVKGRFTLSRDDSKNTLYLQMNSLKTEDTAVYYCTTLDSSSLYVGYYYMDVWGKGTTVTVSS
# VL: DIQMTQSPSSVSASVGDRVTITCRASQDINNWLAWYQQKPGKAPKLLIYTASSLQSGVPSRFSGSGSGTDFTLTISSLQPEDFATYYCQQAHSLPITFGQGTRLEIK
# B11: mAb 118 (antibody, V domains shown)
# VH: EVQLVESGGGLVQPGRSLRLSCAASGFTFDDYTMHWVRQAPGKGLEWVSGISWNSGSIGYADSVKGRFTISRDNAKNSLYLQMNSLRAEDTALYYCSKDSSGYGYYLNYSLDVWGKGTTVTVSS
# VL: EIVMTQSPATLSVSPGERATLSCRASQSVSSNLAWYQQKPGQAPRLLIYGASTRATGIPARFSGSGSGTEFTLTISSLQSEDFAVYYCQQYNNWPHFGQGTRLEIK
# B12: mAb 119 (antibody, V domains shown)
# VH: EVQLVESGGGLVQPGRSLRLSCAASGFTFDDYTMHWVRQAPGKGLEWVSGISWNSGSIGYADSVKGRFTISRDNAKNSLYLQMNSLRAEDTALYYCSKDSSGYGYYLNYSLDVWGKGTTVTVSS
# VL: EIVMTQSPATLSVSPGERATLSCRASQSVSNLAWYQQKPGQAPRLLIYGASTRATGIPARFSGSGSGTEFTLTISSLQSEDFAVYYCQQYNNWPHFGQGTRLQIK
# B13: mAb 120 (antibody, V domains shown)
# VH: EVQLVESGGGLVKTGGSLRLSCVASGFSFKKAWMNWVRQAPGKGLEWVGRIKRNTDGGTADYAAPVKGRFTLSRDDSKKTLFLQMNSLKTEDTAVYYCTTLDSSSYYVGYYYMDVWGKGTTVTVSS
# VL: DIQMTQSPSSVSASVGDRVTITCRASQDINNWLAWYQQKPGKAPKLLIYTASSLQSGVPSRFSGSGSGTDFTLTIGSLQPEDFATYYCQQAHSLPITFGQGTRLEIK
# B14: mAb 121 (antibody, V domains shown)
# VH: EVQLVESGGGLVQPGRSLRLSCATSGFTFADYTMHWVRQAPGKGLEWVSGISWNSGSIDYADSVKGRFTISRDNAKKSLYLQMNSLRAEDTALYFCAKDSSGYGHYYFYYLDVWGKGTTVTVSS
# VL: EIVMTQSPGTLSVSPGKRATLSCRASQSVSSNLAWYQQKPGQGPRLLIYSTSTRATGIPARFSGSGSGTEFTLTISSLQSEDSAVYYCQHYNNWPHFGQGTRLEIK
# B15: mAb 123 (antibody, V domains shown)
# VH: DVQLVESGGGTVKTGGSLRLSCVASGFSFKKAWMNWVRQAPGKGLEWVGRIKKNSDDGTADYAAPVKGRFTISRDDSKRTLFLQMNSLQTEDTAVYYCTTLDSSSWFVGYYYMDVWGKGTTVTVSS
# VL: DIQMTQSPSSVSASVGDRVIITCRASQDINNWLAWYQQKPGKAPKLLIYTASSLQSGVPSRFSGSGSVSDFTLTIDSLQPEDFATYYCQQAHSLPITFGQGTRLEIK
# B16: mAb 126 (antibody, V domains shown)
# VH: EVQLVESGGGLVQPGRSLRLSCAASGFTFNDYTMHWVRQVPGKGLEWVSGISWNSGSIDYADSVKGRFTISRDNAKNSLYLQMNSLRAEDTALYYCAKDSSGYGYYYYYYMDVWGKGTTVTVSS
# VL: EIVMTQSPATLSVSPGERATLSCRASQSVSINLAWYQQKPGQAPRLLIYGASTRATGIPARFSGSGSGTEFTLTISSLQSEDFAVYYCQLYHNWPHFGQGTRLEIK
# B17: mAb 127 (antibody, V domains shown)
# VH: EVQLVESGGGLVKTGGSHRLSCVASGFSFKKAWMNWVRQAPGKGLEWVGRIKRNSDGGTTDYAAPVKGRFILSRDDSKNTLYLQMNSLKTEDTAVYYCTTLDSSSWYVGYYYMDVWGKGTTVTVSS
# VL: DIQMTQSPSSVSASVGDRVTITCRASQDINNWLAWYQQKPGKAPKILIYTASNLQSGVPSRFSGSGSGTDFTLTISTLQPEDFATYFCQQAHGLPITFGQGTRLEIK
# B18: mAb 128 (antibody, V domains shown)
# VH: EVQLVESGGGLVQPGRSLRLSCAASGFTFDDYTMHWVRQAPGKGLEWVSGISWNSGSIGYADSVKGRFTISRDNAKNSLYLQMNSLRAEDTALYYCAKDSSGYGYYYYYSMDVWGKGTTVTVSS
# VL: EIVMTQSPATLSVSPGERATLSCRASQSVSSNLAWYQQKPGQAPRLLIYGASTRATGIPARFSGSGSGTEFTLTISSLQSEDFAVYYCQLYYNWPHFGQGTRLAIK
# B19: mAb 129 (antibody, V domains shown)
# VH: EVQLVESGGDLVKTGGSLRLSCVASGFSFKKAWMNWVRQAPGKGLEWVGRIKRNTDGGATDYAAPVKDRFTLSRDDSKNTLYLQMNSLKTEDTAVYYCTTLDSSSWYVGYYYMDVWGKGTTVTVSS
# VL: DIHMTQSPSSVSASLGDRVTFTCRASQDINNWLAWYQQKPGKAPRLLIYTASSLQSGVPSRFSGSGSGTDFTLTISSLQPDDFATYYCQQAHSLPITFGQGTRLGIE
# Biological target: human CD3 (human, UniProt P07766 23-207; P04234 22-171; P09693 23-182)
# Assay: cell-based or functional assay
# Sequence of human CD3 (P07766 23-207, chain 1 of 3): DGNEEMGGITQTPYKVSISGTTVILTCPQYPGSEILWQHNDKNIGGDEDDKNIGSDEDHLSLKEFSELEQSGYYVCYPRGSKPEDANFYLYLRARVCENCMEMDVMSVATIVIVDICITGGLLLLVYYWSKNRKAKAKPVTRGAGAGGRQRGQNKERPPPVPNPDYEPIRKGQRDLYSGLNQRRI
# Sequence of human CD3 (P04234 22-171, chain 2 of 3): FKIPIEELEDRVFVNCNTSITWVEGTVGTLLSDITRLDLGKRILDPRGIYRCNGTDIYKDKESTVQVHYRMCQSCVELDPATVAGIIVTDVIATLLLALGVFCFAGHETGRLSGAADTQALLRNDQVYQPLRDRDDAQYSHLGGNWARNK
# Sequence of human CD3 (P09693 23-182, chain 3 of 3): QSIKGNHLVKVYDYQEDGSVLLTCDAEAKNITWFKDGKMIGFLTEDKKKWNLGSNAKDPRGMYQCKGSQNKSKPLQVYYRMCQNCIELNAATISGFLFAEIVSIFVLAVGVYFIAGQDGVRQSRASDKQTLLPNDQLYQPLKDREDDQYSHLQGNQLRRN
Binder,"CD4 EC50 (nM); CD69/CD25 on human T cells, plate-coated antibody [nM]","CD8 EC50 (nM); CD69/CD25 on human T cells, plate-coated antibody [nM]"
B1,13.6,12.9
B2,13.5,15.3
B3,6.96,9.42
B4,6.48,6.56
B5,8.81,8.89
B6,23.4,23.8
B7,12.6,12.5
B8,7,7.16
B9,6.96,7.01
B10,6.49,6.59
B11,10.4,11.2
B12,12.9,13.8
B13,6.41,6.46
B14,12.3,12.3
B15,11.7,11.6
B16,10.2,11
B17,10.2,10.3
B18,11.6,11.7
B19,12.5,12.5
